From PMC4148482

Experiments:
[1] = biological target: His-tagged Hsp20 wild type (UniProt O14558); experiment: peptide array overlay (IB: His), spot densitometry; conditions: typical of n = 3; parent: est. 100; read off a plot
[2] = biological target: Aβ1–42 labelled at the N-terminus with HiLyte Fluor 555 (Aβ555) (human) (UniProt P05067)

| Substance | percent of parent (% Control (WT)) [1] | fold decrease in efficiency in disrupting the formation of Aβ555 fibrils and globular structures (self-quenching), against full-length S16D [2] |
| --- | --- | --- |
| Aβ1–42 25mer peptide 1 (D1–G25; array spot) A2 | 77 | – |
| Aβ1–42 25mer peptide 1 (D1–G25; array spot) A21 | 110 | – |
| Hsp20 N-terminal 25-mer peptide, S16D variant (in solution) | – | 2 fold |
